In experiment [1] the target is T1, human transferrin receptor (TfR) (human, UniProt P02786 1-760). Put plainly: cell-based or functional assay.
Experiment [2] concerns the target T2, murine TfR (murine, UniProt Q62351 1-763).
T2 construct: whole, on cells; Endogenous receptor on murine cell lines; also called murine transferrin receptor
Put plainly: flow cytometry on murine Ba/F3 cells, 10 µg/ml, anti-human Fc-phycoerythrin (FIG. 18 (b)). (In general: A flow cytometer gives signals particle by particle.)

Experiment [3] addresses T2, murine TfR. Put plainly: FACS on murine FMA3 cells, 50 µg/ml, penta-His detection (FIG. 16-d right).
For experiment [4], the target named is T1, human transferrin receptor (TfR). Put plainly: FACS on LS-174T cells, scFv on phage, anti-M13 detection (FIG. 7).

T1 sequence (P02786 whole entry): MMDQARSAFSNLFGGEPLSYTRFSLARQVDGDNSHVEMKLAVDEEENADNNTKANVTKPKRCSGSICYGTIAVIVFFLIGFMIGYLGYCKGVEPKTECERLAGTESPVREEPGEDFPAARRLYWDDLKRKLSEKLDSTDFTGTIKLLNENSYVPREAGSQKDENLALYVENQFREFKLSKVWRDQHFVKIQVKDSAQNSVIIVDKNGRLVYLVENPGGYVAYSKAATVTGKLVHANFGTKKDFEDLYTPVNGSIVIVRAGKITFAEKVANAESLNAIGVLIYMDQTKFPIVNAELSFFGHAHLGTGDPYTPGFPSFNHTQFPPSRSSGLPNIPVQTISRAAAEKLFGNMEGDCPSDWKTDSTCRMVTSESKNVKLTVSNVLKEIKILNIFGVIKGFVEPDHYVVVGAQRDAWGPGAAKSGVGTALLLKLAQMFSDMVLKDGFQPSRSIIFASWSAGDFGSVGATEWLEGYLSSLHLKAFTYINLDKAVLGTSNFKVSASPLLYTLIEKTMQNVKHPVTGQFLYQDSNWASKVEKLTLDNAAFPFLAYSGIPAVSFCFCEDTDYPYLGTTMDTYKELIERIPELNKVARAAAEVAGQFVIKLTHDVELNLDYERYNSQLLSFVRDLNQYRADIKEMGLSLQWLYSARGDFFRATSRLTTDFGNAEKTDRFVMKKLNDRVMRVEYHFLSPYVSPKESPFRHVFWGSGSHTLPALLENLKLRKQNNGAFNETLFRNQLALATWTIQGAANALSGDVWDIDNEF
T2 sequence (Q62351 whole entry): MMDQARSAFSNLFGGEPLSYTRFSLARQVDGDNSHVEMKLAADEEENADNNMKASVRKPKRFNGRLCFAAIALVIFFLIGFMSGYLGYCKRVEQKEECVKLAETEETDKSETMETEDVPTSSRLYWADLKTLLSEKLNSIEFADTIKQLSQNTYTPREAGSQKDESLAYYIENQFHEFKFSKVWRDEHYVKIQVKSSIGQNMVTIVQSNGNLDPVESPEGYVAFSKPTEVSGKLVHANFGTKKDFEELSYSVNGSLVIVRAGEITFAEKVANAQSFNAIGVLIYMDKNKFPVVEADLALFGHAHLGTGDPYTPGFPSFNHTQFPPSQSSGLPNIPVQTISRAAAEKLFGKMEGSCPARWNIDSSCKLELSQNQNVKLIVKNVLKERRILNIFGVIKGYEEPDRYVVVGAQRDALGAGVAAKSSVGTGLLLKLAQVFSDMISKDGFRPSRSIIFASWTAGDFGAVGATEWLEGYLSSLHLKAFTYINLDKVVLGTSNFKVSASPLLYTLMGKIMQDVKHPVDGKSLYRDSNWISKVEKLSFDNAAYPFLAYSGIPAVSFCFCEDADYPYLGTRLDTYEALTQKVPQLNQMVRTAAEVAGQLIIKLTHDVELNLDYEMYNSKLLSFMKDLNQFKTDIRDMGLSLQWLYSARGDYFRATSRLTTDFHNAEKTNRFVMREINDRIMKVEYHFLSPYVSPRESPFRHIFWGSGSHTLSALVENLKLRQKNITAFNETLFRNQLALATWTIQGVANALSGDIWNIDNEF

B1: scFv-3TF12 (scFv)
scFv: QVQLQESGGGLVQPGGSLRLSCAASGFSFNTYTMHWVRQAPGKGLEWVADIAYDGSTKYYADSVKGRFTISRDNAKNSLYLQMNSLRAEDTAVYYCARDAVAGEGYFDLWGRGTLVTVSSGGGGSGGGGSGGGGSQSALTQDPAVSVALGQTVRITCQGDSLRSYYASWYQQLPGTAPKLLIYRNNQRPSGVPDRFSGSKSGTSASLAISGLRSEDEADYYCAAWDDSLSAWVFGGGTKLTVLGA
In the case of B1, the “IC50 (µg/ml), proliferation test on the line ERY-1, three days” value in experiment [1] was found to be 0.35 µg/mL.

B2: F12-Fc (Fc fusion)
chain: B1 scFv
notes: Homodimer of about 110 kDa (2 x 55 kDa), made in CHO cells; also called scFv-F12-Fc; antibody F12 in the format scFv-Fc; not shown: constant CH2 and CH3 domains of a human IgG1 (vector pFuse-hG1)
As to B2, in the experiment with murine TfR [2], the binding result was “binds”.

B3: F12CH (other)
scFv: B1 scFv
notes: Bivalent dimer of the scFv 3TF12, about 55 kDa, made in bacteria, held by a bond that DTT reduces; no Fc; also called anti-TfR F12CH; 3TF12 in the scFvCH format; not shown: tail from the bacterial vector pSYN-HIS-CYS (histidine tag, cysteine for dimerisation)
Take B3: the “IC50 (µg/ml), proliferation test on the line ERY-1, three days” value in experiment [1] stood at 0.1 µg/mL. For the same molecule, in the experiment with murine TfR [3], the binding result is given as “binds”.

B4: scFv-3 GH9 (scFv)
scFv: QVQLAESGGGLVKPGGSLRLSCAASGFTFSDYYMSWIRQAPGKGLEWVSYISTSGSSIYYVDSVKGRFTISRDNAKNSLYLQMDSLRDDDTAVYYCARDLHGDYAFDSWGQGTLVTVSSGGGGSGGGGSGGGGSSELTQDPAVSVALGQTVRITCQGDSLRSYYASWYQQKPGQAPVLVIYGKNNRPSGIPDRFSGSKSGNSASLDISGLQSEDEADYYCATWDDNLSGPIFGGGTKVTVLG
notes: Monovalent human scFv, about 28 kDa; on phage or soluble depending on the assay; tags not described; also called anti-TfR scFv
B4: the binding result in experiment [4] is “binds”.

B5: scFv-3TG9 (scFv)
scFv: QVQLVESGGGLVEPGGSLRLSCAASGFTFSNYAINWVRQAPGKGLEWVANIHHDGNGKYYVDSVEGRFTISRDNAKNSLYLQMDSLRAEDTAIYYCARDGYGGYLDLWGQGTLVTVSSGGGGSGGGGSGGGGSSELTQDPAVSVALGQTVRITCQGDSLRSYYASWYQQKPGQAPVLVIYGKNNRPSGIPDRFSGSGSGNTASLTITGAQAEDEADYYCAAWDDSLSGPVFGGGTKVTVLG
notes: as for B4
Regarding B5, in experiment [4], the binding result is given as “binds”.

B6: scFv-3TF2 (scFv)
scFv: QVQLQQSGGGVVQPGGSLRLSCAASEFTFSASGMHWVRQAPGKGLEWMAFIAYDGNQKFYADSVKGRFTISRDNSKNTLYLQMDSLRGEDTAVYYCAKEMQREGYFDYWGQGTLVTVSSGGGGSGGGGSGGGGSNFMLTQDPAVSVALGQTVRITCQGDSLRSYYASWYQQKPGQAPVLVIYGKNNRPSGIPDRFSGSKSGNSASLDISGLQSEDEADYYCATWDDNLSGPIFGGGTKVTVLG
notes: as for B4
For the molecule B6, in experiment [4], the binding result was “binds”.
